Test results: the supplement of paper PMC9233669
This sample holds only a part of the variants without activity.

How the values were obtained:
[1] = tested on: biotinyl-Phe-oxazolone; assay: self-aminoacylation, catalytic enhancement (BFO) (fold over background); higher = more active; k-Seq, kA / k0A0; sequences stand for … in GGGAAUGGAUCCACAUCUACGAAUUC…UUCACUGCAGACUUGACGAAGCUG
Summary of the method: (§1)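 The uncatalyzed rate is the low-activity peak of a bimodal Gaussian fit, and catalytic enhancement is median kA divided by it. The kA values came from pseudo-first-order fits, with 1000 bootstraps, of per-sequence fraction reacted measured by streptavidin capture, triplicate qPCR and Illumina sequencing. Mutagenized RNA pools with a 21-nt variable region (0.43 μM) were reacted with each biotinyl-aminoacyl-oxazolone at 2–1250 μM in 50 μL HEPES/NaCl/KCl/MgCl2/CaCl2 buffer with 5% acetonitrile, pH 6.9–7.0, for 90 minutes at room temperature.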

[2] = tested on: biotinyl-Ile-oxazolone; assay: self-aminoacylation, catalytic enhancement (BIO) (fold over background); higher = more active; k-Seq, kA / k0A0; sequences stand for … in GGGAAUGGAUCCACAUCUACGAAUUC…UUCACUGCAGACUUGACGAAGCUG
Summary of the method: as §1

[3] = tested on: biotinyl-Leu-oxazolone; assay: self-aminoacylation, catalytic enhancement (BLO) (fold over background); higher = more active; k-Seq, kA / k0A0; sequences stand for … in GGGAAUGGAUCCACAUCUACGAAUUC…UUCACUGCAGACUUGACGAAGCUG
Summary of the method: as §1

[4] = tested on: biotinyl-Val-oxazolone; assay: self-aminoacylation, catalytic enhancement (BVO) (fold over background); higher = more active; k-Seq, kA / k0A0; sequences stand for … in GGGAAUGGAUCCACAUCUACGAAUUC…UUCACUGCAGACUUGACGAAGCUG
Summary of the method: as §1

[5] = tested on: biotinyl-Trp-oxazolone; assay: self-aminoacylation, catalytic enhancement (BWO) (fold over background); higher = more active; k-Seq, kA / k0A0; sequences stand for … in GGGAAUGGAUCCACAUCUACGAAUUC…UUCACUGCAGACUUGACGAAGCUG
Summary of the method: as §1

[6] = tested on: biotinyl-Met-oxazolone; assay: self-aminoacylation, catalytic enhancement (BMO) (fold over background); higher = more active; k-Seq, kA / k0A0; sequences stand for … in GGGAAUGGAUCCACAUCUACGAAUUC…UUCACUGCAGACUUGACGAAGCUG
Summary of the method: as §1

Sequence | self-aminoacylation [1] | self-aminoacylation [2] | self-aminoacylation [3] | self-aminoacylation [4] | self-aminoacylation [5] | self-aminoacylation [6]
GAGUUUGCUAAUUGUCGCAAG [Fam3.1 aminoacylation ribozyme variant] | 2.2 | 1.36 | 1.53 | 1.24 | 2.06 | 1.34
GAGUUUGCUAUUAGUCGCAAG [Fam3.1 aminoacylation ribozyme variant] | 2.47 | 1.18 | 1.28 | 1.01 | 1.72 | 1.17
GAUACCCUGGUCAUCGAGUGA [Fam2.1 aminoacylation ribozyme variant] | 31.6 | 4.92 | 7.96 | 5.43 | 10.5 | 8.5
GCAAACUUCAAGCAAUCGGUC [Fam1B.1 aminoacylation ribozyme variant] | 21.7 | 2.13 | 2.47 | 2.17 | 19.5 | 2.05
GCACACUUAAAGCAAUCGGUC [Fam1B.1 aminoacylation ribozyme variant] | 1.1 | 1.25 | 1.15 | 1.18 | 1.49 | 1.06
GCACACUUCAAGAAAUCGGUC [Fam1B.1 aminoacylation ribozyme variant] | 7.74 | 1.97 | 2.21 | 1.59 | 8.15 | 1.87
GCACACUUCAAGCAAUCGGUG [Fam1B.1 aminoacylation ribozyme variant] | 49.1 | 6.23 | 10.3 | 5.92 | 10.1 | 8.09
GCACACUUCAAGCAGUCGGUC [Fam1B.1 aminoacylation ribozyme variant] | 1.33 | 1.56 | 1.75 | 1.41 | 1.69 | 1.55
GCACACUUCAAGCCAUCGGUC [Fam1B.1 aminoacylation ribozyme variant] | 8.33 | 2.81 | 2.81 | 2.57 | 3.87 | 2.32
GCACACUUCAAGGAAUCGGUC [Fam1B.1 aminoacylation ribozyme variant] | 3.95 | 1.67 | 1.61 | 1.22 | 4.35 | 1.55
GCACACUUCAAGUAAUCGGUC [Fam1B.1 aminoacylation ribozyme variant] | 8.6 | 1.89 | 1.77 | 1.7 | 8.15 | 1.88
GCACACUUCGAGCAAUCGGUC [Fam1B.1 aminoacylation ribozyme variant] | 2.2 | 1.87 | 1.46 | 1.81 | 2.86 | 1.9
GCACACUUCUAGCAAUCGGUC [Fam1B.1 aminoacylation ribozyme variant] | 1.34 | 1.2 | 0.999 | 1.22 | 1.28 | 0.936
GUACACUUCAAGCAAUCGGUC [Fam1B.1 aminoacylation ribozyme variant] | 21.1 | 1.55 | 1.64 | 1.34 | 18.4 | 1.29
GUACUUCAAACAAUCGCUCUG [Fam1A.1 aminoacylation ribozyme variant] | 3.1 | 1.77 | 1.88 | 1.71 | 3.76 | 1.91
GUACUUCAAACAAUCGGCCUG [Fam1A.1 aminoacylation ribozyme variant] | 272 | 4.51 | 7.02 | 4.17 | 89.6 | 4.06
GUACUUCAAACAAUCGGGCUG [Fam1A.1 aminoacylation ribozyme variant] | 21.1 | 3.02 | 2.67 | 2.8 | 14.6 | 2.47
GUACUUCAAACAAUCUGUCUG [Fam1A.1 aminoacylation ribozyme variant] | 4.1 | 1.76 | 1.45 | 1.56 | 3.06 | 1.41
GUACUUCAAACAUUCGGUCUG [Fam1A.1 aminoacylation ribozyme variant] | 6.13 | 1.63 | 1.66 | 1.96 | 2.34 | 1.6
GUACUUCACACAAUCGGUCUG [Fam1A.1 aminoacylation ribozyme variant] | 1.5 | 1.34 | 1.11 | 1.3 | 1.67 | 1.02
GUACUUCAGACAAUCGGUCUG [Fam1A.1 aminoacylation ribozyme variant] | 4.98 | 1.22 | 1.32 | 1.06 | 1.56 | 1.2
GUCCACCUAGGUCAUCGGGUG [Fam2.2 aminoacylation ribozyme variant] | 35.1 | 4.43 | 4.46 | 4.67 | 6.85 | 4.1
GUGACCCUGGUCAUCGAGUGA [Fam2.1 aminoacylation ribozyme variant] | 144 | 7.41 | 19.6 | 7.42 | 17.8 | 21.7
